# Data reported in article PMC3691460 (The Journal of Cell Biology, 2013).
# B1: MAdCAM-1: ligand binding to the α4β7 headpiece (protein, UniProt Q13477 19-382, looked up)
# Mucosal addressin cell …: QSLQVKPLQVEPPEPVVAVALGASRQLTCRLACADRGASVQWRGLDTSLGAVQSDTGRSVLTVRNASLSAAGTRVCVGSCGGRTFQHTVQLLVYAFPDQLTVSPAALVPGDPEVACTAHKVTPVDPNALSFSLLVGGQELEGAQALGPEVQEEEEEPQGDEDVLFRVTERWRLPPLGTPVPPALYCQATMRLPGLELSHRQAIPVLHSPTSPEPPDTTSPESPDTTSPESPDTTSQEPPDTTSPEPPDKTSPEPAPQQGSTHTPRSPGSTRTRRPEISQAGPTQGEVIPTGSSKPAGDQLPAALWTSSAVLGLLLLALPTYHLWKRCRHLAEDDTHPPASLRLLPQVSAWAGLRGTGQVGISPS
# What was measured:
# [1] = tested on: αIIbβ3 headpiece ligand binding site; test: Occupancy of ligand binding site by soaked RGD peptide; settings: 10 mM GRGDSP, Mg/Ca (5 mM Mg/1 mM Ca), 24 h, closed headpiece crystals
# [2] = target: αIIbβ3 integrin headpiece (UniProt P08514); test: crystal structure
# [3] = target: T1, αIIbβ3 integrin headpiece (UniProt P08514;P05106); test: crystal structure
# T1 sequence 1: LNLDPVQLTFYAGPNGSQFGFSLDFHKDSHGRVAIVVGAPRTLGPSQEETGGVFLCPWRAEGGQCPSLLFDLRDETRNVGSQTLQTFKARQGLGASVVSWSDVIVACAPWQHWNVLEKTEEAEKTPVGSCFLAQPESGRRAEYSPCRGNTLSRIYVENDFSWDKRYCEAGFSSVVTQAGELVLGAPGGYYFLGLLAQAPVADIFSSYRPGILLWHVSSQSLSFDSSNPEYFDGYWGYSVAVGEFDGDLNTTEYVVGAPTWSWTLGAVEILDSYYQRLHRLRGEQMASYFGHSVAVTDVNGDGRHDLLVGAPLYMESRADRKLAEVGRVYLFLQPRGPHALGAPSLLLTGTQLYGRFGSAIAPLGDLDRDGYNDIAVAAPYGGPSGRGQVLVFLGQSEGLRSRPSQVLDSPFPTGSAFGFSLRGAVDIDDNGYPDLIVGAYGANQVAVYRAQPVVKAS
# T1 sequence 2: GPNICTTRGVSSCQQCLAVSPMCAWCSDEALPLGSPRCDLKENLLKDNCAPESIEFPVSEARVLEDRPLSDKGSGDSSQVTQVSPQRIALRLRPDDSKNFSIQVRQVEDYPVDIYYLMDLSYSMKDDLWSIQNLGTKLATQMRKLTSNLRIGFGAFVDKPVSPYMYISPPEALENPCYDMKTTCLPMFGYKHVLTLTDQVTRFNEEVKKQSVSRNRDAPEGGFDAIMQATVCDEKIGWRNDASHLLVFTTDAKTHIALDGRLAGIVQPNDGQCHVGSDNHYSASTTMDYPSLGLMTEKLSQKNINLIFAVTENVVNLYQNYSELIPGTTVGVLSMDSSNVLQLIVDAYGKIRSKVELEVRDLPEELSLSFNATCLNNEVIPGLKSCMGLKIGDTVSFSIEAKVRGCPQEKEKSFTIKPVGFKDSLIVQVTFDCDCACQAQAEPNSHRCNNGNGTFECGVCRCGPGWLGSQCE
# [4] = target: T2, β3 subunit PSI, hybrid, βI, and I-EGF-1 domains (UniProt P05106); test: crystal structure
# T2 sequence: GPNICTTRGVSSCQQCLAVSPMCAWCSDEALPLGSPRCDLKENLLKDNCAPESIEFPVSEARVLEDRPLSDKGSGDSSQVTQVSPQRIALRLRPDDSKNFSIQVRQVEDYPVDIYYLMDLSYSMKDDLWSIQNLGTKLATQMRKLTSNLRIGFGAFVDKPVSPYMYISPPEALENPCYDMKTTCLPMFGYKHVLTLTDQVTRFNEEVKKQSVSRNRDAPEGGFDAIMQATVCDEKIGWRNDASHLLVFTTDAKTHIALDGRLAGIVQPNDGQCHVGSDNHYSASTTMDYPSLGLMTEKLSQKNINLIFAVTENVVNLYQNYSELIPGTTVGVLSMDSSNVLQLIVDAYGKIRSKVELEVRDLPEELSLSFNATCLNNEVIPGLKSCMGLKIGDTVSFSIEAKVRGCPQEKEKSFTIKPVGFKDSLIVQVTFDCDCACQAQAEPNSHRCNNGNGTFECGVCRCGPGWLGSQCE
# [5] = target: T3, αIIb subunit β-propeller domain (UniProt P08514); test: crystal structure
# T3 sequence: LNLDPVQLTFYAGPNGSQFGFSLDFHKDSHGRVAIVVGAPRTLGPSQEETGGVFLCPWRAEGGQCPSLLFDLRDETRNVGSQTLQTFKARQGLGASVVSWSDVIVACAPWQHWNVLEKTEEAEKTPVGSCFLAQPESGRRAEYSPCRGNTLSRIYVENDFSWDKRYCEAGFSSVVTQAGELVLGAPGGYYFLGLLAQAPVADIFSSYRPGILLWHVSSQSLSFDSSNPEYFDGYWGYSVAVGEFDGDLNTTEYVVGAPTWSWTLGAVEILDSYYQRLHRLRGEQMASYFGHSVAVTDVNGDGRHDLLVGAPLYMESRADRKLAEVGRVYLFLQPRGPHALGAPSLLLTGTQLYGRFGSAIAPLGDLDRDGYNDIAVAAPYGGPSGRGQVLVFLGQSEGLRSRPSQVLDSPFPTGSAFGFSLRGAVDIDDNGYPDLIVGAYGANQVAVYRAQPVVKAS
# α4β7 headpiece = settings: EM; ref Yu et al., 2012; cited from earlier work
molecule,measurement,setting,value
N=C(N)NCCC[C@H](NC(=O)CN)C(=O)NCC(=O)N[C@@H](CC(=O)O)C(=O)N[C@@H](CO)C(=O)N1CCC[C@H]1C(=O)O [GRGDSP],Bound ligand / occupation of the ligand binding site,[1],diffraction revealed bound peptide
GRGDSP peptide,Kd,[2],0.34 to 10 mM
same,fold higher affinity of the open than of the closed headpiece,[2],> 200 fold
GRGDSPK [GRGDSPK peptide],binding result,[3],binds
GRGDSP [GRGDSP peptide],binding result,[4],binds
same,binding result,[5],binds
B1,State of the headpiece upon binding,α4β7 headpiece,either an intermediate or open state
